Assay results: KR20220082776A (dated 2022)

How the values were obtained:
[1] = target: T1, 재조합 인간 TIGIT-His 단백질 (recombinant human TIGIT-His protein) (human) (UniProt Q495A1); test: SPR, chimeric antibodies; antigen not given
T1 sequence (looked up): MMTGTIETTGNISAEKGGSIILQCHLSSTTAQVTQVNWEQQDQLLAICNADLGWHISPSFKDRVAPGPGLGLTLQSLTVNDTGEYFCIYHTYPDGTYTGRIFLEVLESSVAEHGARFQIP

[2] = target: T2, 인간 TIGIT (human TIGIT on cells) (human, UniProt Q495A1 22-244); test: flow cytometry on CD4 and CD8 T cells of anti-hCD3/28-activated human PBMC
T2 construct: whole, on cells; also called hTIGIT
T2 sequence (looked up): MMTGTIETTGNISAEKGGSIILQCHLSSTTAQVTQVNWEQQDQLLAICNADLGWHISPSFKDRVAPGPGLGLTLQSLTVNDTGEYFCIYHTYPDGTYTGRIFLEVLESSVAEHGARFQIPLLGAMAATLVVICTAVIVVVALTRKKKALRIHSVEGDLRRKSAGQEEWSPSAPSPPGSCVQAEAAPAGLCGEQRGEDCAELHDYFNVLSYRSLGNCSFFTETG

[3] = target: T1, 재조합 인간 TIGIT-His 단백질 (recombinant human TIGIT-His protein) (human); test: SPR, humanized antibodies; antigen not given
[4] = target: T2, 인간 TIGIT (human TIGIT on cells); test: flow cytometry on artificial effector T cells expressing TIGIT
[5] = target: T3, 재조합 인간 TIGIT-His 단백질 (recombinant human TIGIT-His protein) (human, UniProt Q495A1 22-141); test: hybridoma culture medium; 도 1 is flow cytometry on anti-hCD3/28-activated human T cells, the sentence names recombinant human TIGIT-His
T3 construct: All are treated here as one molecule; also called TIGIT-His(Sino); 항원; not shown: His tag
T3 sequence (looked up): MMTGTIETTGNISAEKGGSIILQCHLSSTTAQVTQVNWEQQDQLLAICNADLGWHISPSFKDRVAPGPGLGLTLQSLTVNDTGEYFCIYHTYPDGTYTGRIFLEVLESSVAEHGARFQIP

[6] = target: T3, 재조합 인간 TIGIT-His 단백질 (recombinant human …); test: SPR; antigen not given
[7] = target: T3, 재조합 인간 TIGIT-His 단백질 (recombinant human …); test: ELISA, plate coated with recombinant human TIGIT-His, as in Example 3-(1)
[8] = target: T3, 재조합 인간 TIGIT-His 단백질 (recombinant human …); test: method not named in the sentence (SPR of Example 7); antigen not given
[9] = target: T3, 재조합 인간 TIGIT-His 단백질 (recombinant human …); test: ELISA, plate coated with recombinant human TIGIT-His, anti-hIgG-HRP detection

B1: chimeric-후보항체 clone 58E (antibody, V domains shown)
VH: EVQLQQSGPELVKPGASVKMSCKASGYTFTSYVMHWVKQKPGQGLEWIGYINLNNDGTKYNEKFKGKATLSSDKSSSTAYMELSSLTSEDSAVYYCARWRVYYYAMDYWGQGTSVTVSS
VL: EIVLTQSPAITAASLGQKVTITCSASSSVNYMHWYQQKSGTSPRPWIYEISKLASGVPARFSGSGSGTSYSLTISSMEAEDAAIYYCQLWNYPLITFGAGTKLELK
notes: also called chimeric 58E; 후보항체 58E
For B1, the 결합력, fold higher than the control Oncomed-313M32 antibody [1] was 13 배 and the binding result [2] was “binds”.

B2: chimeric-후보항체 clone 62F (antibody, V domains shown)
VH: EVQLQQSGPELVKPGASVKISCKTSGFTFTEYTMHWVKQSHGKSLEWIGGFNPNSGGSSYNQKFKGKATLTVDKSSSTAFMELRSLTSEDSAAYYCARSSYYRFDLDYWGQGTTLTVSS
VL: DIVMTQSHKFMSTSVGDRVSITCKASQDVKTAVAWYQQKPGQSPQLLIYSASFRYTGVPDRFTGSGSGADFTFTISSVQAEDLAAYYCQQHYTTPWTFGGGTKLEIK
notes: also called chimeric 62F
With B2 the 결합력, fold higher than the control Oncomed-313M32 antibody [1] was 30 배 and the binding result [2] was “binds”.

B3: chimeric-후보항체 clone 63F (antibody, V domains shown)
VH: EVQLEEFGGGLVQPGGSMKLSCVASGSTFSNYWMNWVRQSPEKGLEWVAEIRLKFNNYATHYVESVIGRFTISRDDSKSSVYLQMNNLRAEDTGIYYCTMVRRNWYFDVWGAGTTVTVSS
VL: QIVLTQSPAIMSAFPGEKVTLTCSASSSVSSSYLYWYQQKPRSSPKLWIYSTSNLASGVPARFSGSGSGTSYSLTISSMEAEDAASYFCHQWSSYPYTFGGGTKLEIK
B3 was tested, and the 결합력, fold higher than the control Oncomed-313M32 antibody [1] was 6 배.

B4: chimeric-후보항체 clone 75G (antibody, V domains shown)
VH: EVNLEESGGGLVQPGGSMKLSCVASGVTFSNYWMNWVRQSPEKGLEWVAEIRLKFNDYATHYVESVKGRFTISRDDSESSVYLQMNNLRAEDTGIYYCTMVRRNWYFDVWGAGTTVTVSS
VL: QIVLTQSPAIMSASPGEKVTLTCSASSSVSSGYLYWYQKKPGSSPKLWIYSTSDLASGVPARFSGSGSGTFYSLTISNMEAEDAASYFCHQWSSYPYTFGGGTKLEIK
notes: also called chimeric 75G
B4 was tested, and the 결합력, fold higher than the control Oncomed-313M32 antibody [1] was 30 배 and the binding result [2] was “binds”.

B5: 인간화 후보항체 clone 62F (antibody, V domains shown)
VH: QVQLVQSGAEVKKPGASVKVSCKASGFTFTEYTMHWVRQAPGQGLEWIGGFNPNSGGSSYNQKFKGRATLTVDKSISTAYMELSRLRSDDTAVYYCARSSYYRFDLDYWGQGTTVTVSS
VL: DIQMTQSPSSLSASVGDRVTITCKASQDVKTAVAWYQQKPGKAPKLLIYSASFRYTGVPSRFSGSGSGADFTLTISSLQPEDFATYYCQQHYTTPWTFGQGTKVEIK
notes: Humanized; also called 인간화 후보항체 62F; hu62F
B5 was tested, and the 결합력, fold higher than humanized clone 19D [3] was 33 배 and the binding result [4] was “binds”.

B6: 인간화 후보항체 clone 63F (antibody, V domains shown)
VH: EVQLVESGGGLVQPGGSLRLSCAASGSTFSNYWMNWVRQAPGKGLEWVAEIRLKFNNYATHYVESVIGRFTISRDDSKNSVYLQMNSLKTEDTAVYYCTMVRRNWYFDVWGRGTLVTVSS
VL: EIVLTQSPATLSLSPGERATLSCSASSSVSSSYLYWYQQKPGLAPRLWIYSTSNLASGIPDRFSGSGSGTDYTLTISRLEPEDFAVYYCHQWSSYPYTFGQGTKLEIK
notes: Humanized; also called 인간화 후보항체 63F; humanized 63F
B6 was tested, and the 결합력, fold higher than humanized clone 19D [3] was 13 배 and the binding result [4] was “binds”.

B7: 인간화 후보항체 clone 75G (antibody, V domains shown)
VH: EVQLVESGGGLVQPGGSLRLSCAASGVTFSNYWMNWVRQAPGKGLEWVAEIRLKFNDYATHYVESVKGRFTISRDDSKNSVYLQMNSLKTEDTAVYYCTMVRRNWYFDVWGRGTLVTVSS
VL: EIVLTQSPATLSLSPGERATLSCSASSSVSSGYLYWYQQKPGLAPRLWIYSTSDLASGIPDRFSGSGSGTDYTLTISRLEPEDFAVYYCHQWSSYPYTFGQGTKLEIK
notes: Humanized; also called 인간화 후보항체 75G; humanized 75G
In the case of B7, the 결합력, fold higher than humanized clone 19D [3] is reported as 36 배 and the binding result [4] is reported as “binds”.

B8: clone 58E (hybridoma antibody) (antibody, V domains shown)
VH: EVQLQQSGPELVKPGASVKMSCKASGYTFTSYVMHWVKQKPGQGLEWIGYINLNNDGTKYNEKFKGKATLSSDKSSSTAYMELSSLTSEDSAVYYCARWRVYYYAMDYWGQGTSVTVSS
VL: EIVLTQSPAITAASLGQKVTITCSASSSVNYMHWYQQKSGTSPRPWIYEISKLASGVPARFSGSGSGTSYSLTISSMEAEDAAIYYCQLWNYPLITFGAGTKLELK
notes: Mouse hybridoma antibody (culture medium)
B8: binds [5].

B9: T21.01 (antibody, V domains shown)
VH: EVQLQQSGPELVKPGASVKMSCKASGYTFTSYVMHWVKQKPGQGLEWIGYINLNNDGTKYNEKFKGKATLSSDKSSSTAYMELSSLTSEDSAVYYCARWRVYYYAMDYWGQGTSVTVSS
VL: EIVLTQSPAITAASLGQKVTITCNASSSVDYVHWYQQKSGTSPRPWIYEISKLASGVPARFSGSGSGTSYSLTISSMEAEDAAIYYCQLWNYPLITFGAGTKLELK
notes: Gene engineered variant of 58E; produced in Expi293F; also called clone T21.01
B9: binds [6].

B10: clone 62F (hybridoma antibody) (antibody, V domains shown)
VH: EVQLQQSGPELVKPGASVKISCKTSGFTFTEYTMHWVKQSHGKSLEWIGGFNPNSGGSSYNQKFKGKATLTVDKSSSTAFMELRSLTSEDSAAYYCARSSYYRFDLDYWGQGTTLTVSS
VL: DIVMTQSHKFMSTSVGDRVSITCKASQDVKTAVAWYQQKPGQSPQLLIYSASFRYTGVPDRFTGSGSGADFTFTISSVQAEDLAAYYCQQHYTTPWTFGGGTKLEIK
notes: Mouse hybridoma antibody
B10: binds [5].

B11: 인간화 후보항체 clone 19D (antibody, V domains shown)
VH: QVQLVQSGAEVKKPGASVKVSCKASGYTFSNYVMHWVRQAPGQRLEWIGYINPYNDGTKYNEKFKGRATLTSDRSASTAYMELSSLRSEDTAVYYCARWRVNYYFDYWGQGTLVTVSS
VL: DIQLTQSPSSLSASVGDRVTITCRASSSVNYMHWYQQKPGKAPKAWISVTSNLASGVPSRFSGSGSGTDYTLTISSLQPEDFATYYCQQWSSNPPWTFGQGTKVEIK
notes: Humanized; also called 인간화 후보항체 19D; humanized 19D
B11: binds [4]; binds [7].

B12: T21.09 (antibody, V domains shown)
VH: EVQLQQSGPELVKPGASVKMSCKASGYTFTSYVMHWVKQKPGQGLEWIGYINLNNDGTKYNEKFKGKATLSSDKSSSTAYMELSSLTSEDSAVYYCARWRVYYYAMDYWGQGTSVTVSS
VL: EIVLTQSPATLSLSPGERATLSCNASSSVDYVHWYQQKPGQAPRPWIYEISKLASGIPARFSGSGSGTDYTLTISSLEPEDFAVYYCQLWNYPLITFGQGTKVEIK
notes: Gene engineered variant of 58E; also called clone T21.09
B12: binds [6].

B13: T21.11 (antibody, V domains shown)
VH: QVQLVQSGAEVKKPGASVKVSCKASGYTFTSYVMHWVRQAPGQRLEWIGYINLNNDGTKYNEKFKGRATLTSDKSASTAYMELSSLRSEDTAVYYCARWRVYYYAMDYWGQGTLVTVSS
VL: EIVLTQSPAITAASLGQKVTITCNASSSVDYVHWYQQKSGTSPRPWIYEISKLASGVPARFSGSGSGTSYSLTISSMEAEDAAIYYCQLWNYPLITFGAGTKLELK
notes: Gene engineered variant of 58E: humanized 58E heavy chain, light chain T21L01; also called clone T21.11
B13: binds [6].

B14: T21.13 (antibody, V domains shown)
VH: QVQLVQSGAEVKKPGASVKVSCKASGYTFTSYVMHWVRQAPGQRLEWIGYINLNNDGTKYNEKFKGRATLTSDKSASTAYMELSSLRSEDTAVYYCARWRVYYYAMDYWGQGTLVTVSS
VL: EIVLTQSPATLSLSPGERATLSCNASSSVDYVHWYQQKPGQAPRPWIYEISKLASGIPARFSGSGSGTDYTLTISSLEPEDFAVYYCQLWNYPLITFGQGTKVEIK
notes: Gene engineered variant of 58E; also called clone T21.13
B14: binds [6].

B15: T21.33 (antibody, V domains shown)
VH: QVQLVQSGAEVKKPGASVKVSCKASGYTFTSYVMHWVRQAPGQRLEWIGYINLNNDGTKYNEKFKGRATLTSDKSASTAYMELSSLRSEDTAVYYCARWRVYYYAMDYWGQGTLVTVSS
VL: EIVLTQSPATLSLSPGERATLSCNASSSVDYVHWYQQKPGQAPRPWIYEISKLASGIPARFSGSGSGTSYTLTISSLEPEDFAVYYCQLWNYPLITFGQGTKVEIK
notes: also called clone T21.33
B15: binds [8].

B16: clone 75G (hybridoma antibody) (antibody, V domains shown)
VH: EVNLEESGGGLVQPGGSMKLSCVASGVTFSNYWMNWVRQSPEKGLEWVAEIRLKFNDYATHYVESVKGRFTISRDDSESSVYLQMNNLRAEDTGIYYCTMVRRNWYFDVWGAGTTVTVSS
VL: QIVLTQSPAIMSASPGEKVTLTCSASSSVSSGYLYWYQKKPGSSPKLWIYSTSDLASGVPARFSGSGSGTFYSLTISNMEAEDAASYFCHQWSSYPYTFGGGTKLEIK
notes: as for B8
B16: binds [5].

B17: chimeric-후보항체 clone 19D (antibody, V domains shown)
VH: EVQLQQSGPELVKPGASVKMSCKASGYTFSNYVMHWVKQKPGQGLEWIGYINPYNDGTKYNEKFKGKATLTSDRSSSTAYMELSSLTSEDSAVYYCARWRVNYYFDYWGQGTTLTVSS
VL: QIVLSQSPAILSASPGEKVTMTCRASSSVNYMHWYQQKPGSSPKAWISVTSNLASGVPARFSGSGSGTSYSLTISRVEAEDAATYYCQQWSSNPPWTFGGGTKLEIK
notes: Produced in Expi293; also called chimeric 19D
B17: binds [9].
